From patent US20120316071A1 (published 2012)
Positions count from the first letter of the chain named. In names and notes the source's numbering stands.

Legend:
[1] = biological target: T1, Recombinant Human DLL4 (R&D Systems Cat#1506-D4/CF) (human, UniProt Q9NR61 27-524); experiment: SPR
T1 construct: bought recombinant protein; also called rHuman DLL4; delta-like protein 4

[2] = biological target: T1, Recombinant Human DLL4 (R&D Systems …); experiment: affinity quoted with the Multispot ECL titration; method of the number not stated there
[3] = biological target: T2, Recombinant Human DLL4 (R&D Systems Cat#1506-D4/CF) (human, UniProt Q9NR61 27-524); experiment: ECL Multispot (MSD), DLL4 spotted, 10 nM Fab
T2 construct: Bought recombinant protein; also called delta-like protein 4; rHuman DLL4

[4] = biological target: T2, Recombinant Human DLL4 (R&D Systems …); experiment: ELISA, DLL4 coated, 100 nM Fab, absorbance at 450 nm minus noise
[5] = biological target: T3, rHuman HGF R/c-MET/Fc Chimera, CF (R&D Systems Cat#358-MT/CF) (human, UniProt P08581 25-932); experiment: ECL Multispot (MSD), antigen spotted, Fab 0.50 (column head 'Fab [µM]'); blank 206
T3 construct: Bought Fc chimera; also called HGF R/Fc; hepatocyte growth factor receptor; Fc part of the bought chimera not given

[6] = biological target: T4, rHuman IGF-1 sR, CF (R&D Systems Cat#391-GR) (human, UniProt P08069 31-932); experiment: as above
T4 construct: Bought soluble receptor; also called insulin-like growth factor-1 soluble receptor

[7] = biological target: T5, rHuman P-Cadherin/Fc Chimera, CF (R&D Systems Cat#861-PC) (human, UniProt P22223 108-654); experiment: as above
T5 construct: Bought Fc chimera; Fc part of the bought chimera not given

[8] = biological target: T2, Recombinant Human DLL4 (R&D Systems …); experiment: as above
[9] = biological target: T6, rHuman ErbB2/Fc Chimera, CF (R&D Systems Cat#1129-ER) (human, UniProt P04626 23-652); experiment: as above
T6 construct: Bought Fc chimera; also called human epidermal growth factor 2 receptor; Fc part of the bought chimera not given

[10] = biological target: T3, rHuman HGF R/c-MET/Fc Chimera, CF (R&D …); experiment: ECL Multispot (MSD), antigen spotted, Fab 5.00 (column head 'Fab [µM]'); blank 268
[11] = biological target: T4, rHuman IGF-1 sR, CF (R&D Systems …); experiment: as above
[12] = biological target: T5, rHuman P-Cadherin/Fc Chimera, CF (R&D …); experiment: as above
[13] = biological target: T2, Recombinant Human DLL4 (R&D Systems …); experiment: as above
[14] = biological target: T6, rHuman ErbB2/Fc Chimera, CF (R&D …); experiment: as above
[15] = biological target: T3, rHuman HGF R/c-MET/Fc Chimera, CF (R&D …); experiment: ECL Multispot (MSD), antigen spotted, Fab 50.00 (column head 'Fab [µM]'); blank 223
[16] = biological target: T4, rHuman IGF-1 sR, CF (R&D Systems …); experiment: as above
[17] = biological target: T5, rHuman P-Cadherin/Fc Chimera, CF (R&D …); experiment: as above
[18] = biological target: T2, Recombinant Human DLL4 (R&D Systems …); experiment: as above
[19] = biological target: T6, rHuman ErbB2/Fc Chimera, CF (R&D …); experiment: as above
[20] = biological target: T3, rHuman HGF R/c-MET/Fc Chimera, CF (R&D …); experiment: ECL Multispot (MSD), antigen spotted, Fab 500.00 (column head 'Fab [µM]'); blank 495
[21] = biological target: T4, rHuman IGF-1 sR, CF (R&D Systems …); experiment: as above
[22] = biological target: T5, rHuman P-Cadherin/Fc Chimera, CF (R&D …); experiment: as above
[23] = biological target: T2, Recombinant Human DLL4 (R&D Systems …); experiment: as above
[24] = biological target: T6, rHuman ErbB2/Fc Chimera, CF (R&D …); experiment: as above
[25] = biological target: T7, Recombinant Human DLL4 (R&D Systems Cat#1506-D4/CF) (human, UniProt Q9NR61 27-524); experiment: ECL multispot binding assay (MSD), antigen spotted on plate, 10 nM Fab
T7 construct: Bought recombinant protein; also called delta-like protein 4; rHuman DLL4

[26] = biological target: T8, rHuman ErbB2/Fc Chimera, CF (R&D Systems Cat#1129-ER) (human, UniProt P04626 23-652); experiment: as above
T8 construct: Bought recombinant protein; also called human epidermal growth factor 2 receptor; Fc part of the bought chimera not given

[27] = biological target: T9, rHuman EGF R/Fc Chimera, CF (R&D Systems Cat#344-ER) (human, UniProt P00533 25-645); experiment: as above
T9 construct: Bought recombinant protein; also called epidermal growth factor receptor; Fc part of the bought chimera not given

[28] = biological target: T10, rHuman HGF R/c-MET/Fc Chimera, CF (R&D Systems Cat#358-MT/CF) (human, UniProt P08581 25-932); experiment: as above
T10 construct: Bought recombinant protein; also called HGF R/Fc; hepatocyte growth factor receptor; Fc part of the bought chimera not given

[29] = biological target: T11, rHuman Notch-1/Fc Chimera, CF (R&D Systems Cat#3647-TK) (human, UniProt P46531 19-526); experiment: as above
T11 construct: Bought recombinant protein; Fc part of the bought chimera not given

[30] = biological target: T12, rHuman CD44/Fc Chimera, CF (R&D Systems Cat#3660-CD) (human, UniProt P16070 21-220); experiment: as above
T12 construct: Bought recombinant protein; Fc part of the bought chimera not given

[31] = biological target: T13, rHuman IGF-1 sR, CF (R&D Systems Cat#391-GR) (human, UniProt P08069 31-932); experiment: as above
T13 construct: also called insulin-like growth factor-1 soluble receptor

[32] = biological target: T14, rHuman P-Cadherin/Fc Chimera, CF (R&D Systems Cat#861-PC) (human, UniProt P22223 108-654); experiment: as above
T14 construct: Bought recombinant protein; Fc part of the bought chimera not given

[33] = biological target: T15, rHuman Erythropoietin R/Fc Chimera, CF (R&D Systems Cat#963-ER) (human, UniProt P19235 25-250); experiment: as above
T15 construct: Bought recombinant protein; also called EPO R; EPO R/Fc; Fc part of the bought chimera not given
T15 sequence (looked up): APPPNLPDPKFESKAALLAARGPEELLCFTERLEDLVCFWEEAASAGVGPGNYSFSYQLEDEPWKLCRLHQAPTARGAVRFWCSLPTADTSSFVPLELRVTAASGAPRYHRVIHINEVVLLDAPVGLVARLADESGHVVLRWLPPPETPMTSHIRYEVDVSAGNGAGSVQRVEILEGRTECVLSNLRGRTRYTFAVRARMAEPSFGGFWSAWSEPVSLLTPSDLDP

B1: Fab VH1-46_IGHD6-6*01_IGHJ1*01 S102A/S103P/S104F/H111F & L6_IGKJ1*01 (Fab, V domains shown)
VH: QVQLVQSGAEVKKPGASVKVSCKASGYTFTSYYMHWVRQAPGQGLEWMGIINPSGGSTSYAQKFQGRVTMTRDTSTSTVYMELSSLRSEDTAVYYCAREEYAPFSAEYFQFWGQGTLVTVSS
VL: not shown
notes: Fab; also called H:APFF & L:wt; APFF mutant
With B1 the “fold affinity against the parent Fab” value [1] was 10 fold and the “apparent Kd (pooled screen)” value [2] was 70 nM.

B2: Fab VH1-46_IGHD6-6*01_IGHJ1*01 S102A/S103P/S104F/H111F (APFF) & L6_IGKJ1*01 (Fab, V domains shown)
VH: B1 VH
VL: not shown
notes: Tested as Fab expressed in E. coli: heavy chain from plasmid A (CH1 with His6 and Flag tags), kappa light chain from plasmid C (CL kappa); also called H:APFF & L:wt
In the case of B2, the “ECL Signal/Noise” value [3] is reported as 202, the “ELISA (Signal-Noise)” value [4] is reported as 0.78 and the ECL signal [5] is reported as 215. For the same binder, the ECL signal [6] was 184, the ECL signal [7] was 201 and the ECL signal [8] was 7540. It also gave an ECL signal [9] of 222, an ECL signal [10] of 258 and an ECL signal [11] of 323. For the same binder, the ECL signal [12] was 280, the ECL signal [13] was 75800 and the ECL signal [14] was 286. For the same binder, the ECL signal [15] was 380, the ECL signal [16] was 485 and the ECL signal [17] was 453. The ECL signal [18] was 79300, the ECL signal [19] was 503 and the ECL signal [20] was 723. The ECL signal [21] was 736, the ECL signal [22] was 785 and the ECL signal [23] was 27200. For the same binder, the ECL signal [24] was 712.

B3: Fab VH1-46_IGHD6-6*01_IGHJ1*01 S102A/S103P/S104F/H111F S59A & L6_IGKJ1*01 (Fab, V domains shown)
VH: B1 VH with S59A
VL: not shown
notes: Tested as a Fab made in E. coli; also called APFF S59A
B3 gave an ECL signal [25] of 4500, an ECL signal [26] of 312 and an ECL signal [27] of 358. The ECL signal [28] was 280, the ECL signal [29] was 333 and the ECL signal [30] was 346. For the same binder, the ECL signal [31] was 273, the ECL signal [32] was 339 and the ECL signal [33] was 382.
